# Values quoted from earlier work as cited in patent publication US20200247855A1, “THERAPY AND DIAGNOSTICS” (OXFORD UNIVERSITY INNOVATION LIMITED, priority 2017, published 2020).
# T1: CCL23_HUMAN (Homo sapiens, UniProt P55773)
# T1 sequence (P55773 22-120): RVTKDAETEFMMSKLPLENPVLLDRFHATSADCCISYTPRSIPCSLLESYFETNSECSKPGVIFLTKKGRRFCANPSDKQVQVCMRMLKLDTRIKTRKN
# T2: CCL27_HUMAN (Homo sapiens, UniProt Q9Y4X3)
# T2 sequence (Q9Y4X3 25-112): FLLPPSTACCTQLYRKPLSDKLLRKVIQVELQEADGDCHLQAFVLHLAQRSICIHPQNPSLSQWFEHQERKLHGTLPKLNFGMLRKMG
# T3: CCL4_HUMAN (Homo sapiens, UniProt P13236)
# T3 sequence (P13236 24-92): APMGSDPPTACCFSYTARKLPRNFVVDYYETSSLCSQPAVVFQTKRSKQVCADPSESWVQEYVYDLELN
# T4: CCL8_HUMAN (Homo sapiens, UniProt P80075)
# T4 sequence (P80075 24-99): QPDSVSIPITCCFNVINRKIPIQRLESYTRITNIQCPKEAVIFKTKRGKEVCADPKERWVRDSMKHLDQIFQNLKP
# T5: CCL16_HUMAN (Homo sapiens, UniProt O15467)
# T5 sequence (O15467 24-120): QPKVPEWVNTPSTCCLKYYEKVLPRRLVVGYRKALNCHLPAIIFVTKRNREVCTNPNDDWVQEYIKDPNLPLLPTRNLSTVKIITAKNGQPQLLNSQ
# T6: CCL1_HUMAN (Homo sapiens, UniProt P22362)
# T6 sequence (P22362 24-96): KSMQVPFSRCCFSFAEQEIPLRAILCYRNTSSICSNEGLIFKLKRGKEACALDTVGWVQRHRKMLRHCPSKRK
# T7: CCL21_HUMAN (Homo sapiens, UniProt O00585)
# T7 sequence (O00585 24-134): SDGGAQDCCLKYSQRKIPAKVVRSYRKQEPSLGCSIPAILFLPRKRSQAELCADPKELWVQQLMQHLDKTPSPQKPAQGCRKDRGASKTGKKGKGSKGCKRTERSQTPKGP
# T8: CCL3_HUMAN (Homo sapiens, UniProt P10147)
# T8 sequence (P10147 24-92): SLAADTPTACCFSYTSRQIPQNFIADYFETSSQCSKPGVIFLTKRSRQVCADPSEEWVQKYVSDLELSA
# T9: CCL15_HUMAN (Homo sapiens, UniProt Q16663)
# T9 sequence (Q16663 22-113): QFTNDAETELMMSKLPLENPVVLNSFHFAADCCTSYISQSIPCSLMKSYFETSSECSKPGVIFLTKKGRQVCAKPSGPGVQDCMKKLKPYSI
# T10: CCL14_HUMAN (Homo sapiens, UniProt Q16627)
# T10 sequence (Q16627 20-93): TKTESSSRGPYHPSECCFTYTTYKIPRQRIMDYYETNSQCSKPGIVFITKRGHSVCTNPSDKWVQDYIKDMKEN
# B1: EVASIN4: previously described tick CKBP evasin 4, from Rhipicephalus sanguineus (protein, listed as Rhipicephalus sanguineus)
# chain: EVPQMTSSSAPDLEEEDDYTAYAPLTCYFTNSTLGLLAPPNCSVLCNSTTTWFNETSPNNASCLLTVDFLTQDAILQENQPYNCSVGHCDNGTCAGPPRHAQCW
# B2: P1243_AMBAM: tick CKBP, Amblyomma americanum; AAM-02 stated identical (protein, listed as Amblyomma americanum)
# chain: RNHTEDNSTEYYDYEEARCACPARHLNNTNGTVLKLLGCHYFCNGTLCTAPDGYPCYNLTAQQVRTLTTYPNTSCAVGVCMKGTCVKNGTMEQCFKTP
# Legend:
# CCL2_HUMAN = CCL2_HUMAN (Homo sapiens, UniProt P13500); settings: data obtained from publications [20-22,32]; cited from earlier work
# CCL2_HUMAN, sequence (P13500 24-99): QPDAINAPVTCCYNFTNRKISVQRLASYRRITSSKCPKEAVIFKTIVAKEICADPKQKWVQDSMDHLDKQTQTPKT
# CCL11_HUMAN = CCL11_HUMAN (Homo sapiens, UniProt P51671); settings: read-out: Kd, CCL11_HUMAN, previously described evasins; data obtained from publications [20-22,32]; cited from earlier work
# CCL11_HUMAN, sequence (P51671 24-97): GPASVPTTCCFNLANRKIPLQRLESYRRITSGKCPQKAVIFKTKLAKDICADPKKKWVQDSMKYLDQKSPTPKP
# CCL7_HUMAN = CCL7_HUMAN (Homo sapiens, UniProt P80098); settings: read-out: Kd, CCL7_HUMAN, previously described evasins; data obtained from publications [20-22,32]; cited from earlier work
# CCL7_HUMAN, sequence (P80098 24-99): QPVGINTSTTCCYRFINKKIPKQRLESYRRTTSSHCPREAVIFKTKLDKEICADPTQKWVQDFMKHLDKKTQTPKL
# CCL23_HUMAN = biological target: T1, CCL23_HUMAN; settings: read-out: Kd, CCL23_HUMAN, previously described evasins; data obtained from publications [20-22,32]; cited from earlier work
# CCL26_HUMAN = CCL26_HUMAN (Homo sapiens, UniProt Q9Y258); settings: read-out: Kd, CCL26_HUMAN, previously described evasins; data obtained from publications [20-22,32]; cited from earlier work
# CCL26_HUMAN, sequence (Q9Y258 24-94): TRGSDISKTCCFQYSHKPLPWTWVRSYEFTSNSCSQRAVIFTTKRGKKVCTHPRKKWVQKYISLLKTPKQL
# CCL27_HUMAN = biological target: T2, CCL27_HUMAN; settings: data obtained from publications [20-22,32]; cited from earlier work
# CCL4_HUMAN = biological target: T3, CCL4_HUMAN; settings: data obtained from publications [20-22,32]; cited from earlier work
# CCL8_HUMAN = biological target: T4, CCL8_HUMAN; settings: read-out: Kd, CCL8_HUMAN, previously described evasins; data obtained from publications [20-22,32]; cited from earlier work
# CCL16_HUMAN = biological target: T5, CCL16_HUMAN; settings: read-out: Kd, CCL16_HUMAN, previously described evasins; data obtained from publications [20-22,32]; cited from earlier work
# CCL1_HUMAN = biological target: T6, CCL1_HUMAN; settings: read-out: Kd, CCL1_HUMAN, previously described evasins; data obtained from publications [20-22,32]; cited from earlier work
# CCL21_HUMAN = biological target: T7, CCL21_HUMAN; settings: data obtained from publications [20-22,32]; read-out: Kd, CCL21_HUMAN, previously described evasins; cited from earlier work
# CCL3_HUMAN = biological target: T8, CCL3_HUMAN; settings: read-out: Kd, CCL3_HUMAN, previously described evasins; data obtained from publications [20-22,32]; cited from earlier work
# CCL15_HUMAN = biological target: T9, CCL15_HUMAN; settings: read-out: Kd, CCL15_HUMAN, previously described evasins; data obtained from publications [20-22,32]; cited from earlier work
# CCL14_HUMAN = biological target: T10, CCL14_HUMAN; settings: read-out: Kd, CCL14_HUMAN, previously described evasins; data obtained from publications [20-22,32]; cited from earlier work
# chemokines = settings: list of chemokines bound, from the literature [18,20-22]; cited from earlier work
Molecule,"Kd, CCL2_HUMAN, previously described evasins (CCL2_HUMAN)",Kd (CCL11_HUMAN),Kd (CCL7_HUMAN),Kd (CCL23_HUMAN),Kd (CCL26_HUMAN),"Kd, CCL27_HUMAN, previously described evasins (CCL27_HUMAN)","Kd, CCL4_HUMAN, previously described evasins (CCL4_HUMAN)",Kd (CCL8_HUMAN),Kd (CCL16_HUMAN),Kd (CCL1_HUMAN),Kd (CCL21_HUMAN),Kd (CCL3_HUMAN),Kd (CCL15_HUMAN),Kd (CCL14_HUMAN),Previously described chemokine binding (chemokines)
B1,No Binding,0.34 nM,0.7 nM,4.43 nM,0.88 nM,No Binding,No Binding,0.25 nM,0.26 nM,0.2 nM,0.01 nM,0.06 nM,2.31 nM,0.14 nM,–
B2,–,–,–,–,–,–,–,–,–,–,–,–,–,–,"CCL11, CCL24, and CCL26, CCL2, and CCL7"
